Test results reported in publication PMC6609445.

Molecular target: purified NTRI ectodomain (FLAG-NTRI, Fc removed) (human) (UniProt Q9P121)
Assay: AUC

Kd: 110 nM
percent dimer at 2.0 uM: 50%
percent dimer at 10 uM: 87%
stoichiometry N: 2
Substance: purified NTRI ectodomain (FLAG-NTRI, Fc removed) (from UniProt Q9P121 34-321) (domain or fragment)
